Substrate in this data set: Nc1ncnc2c1ncn2[C@@H]1O[C@H](COP(=O)(O)OP(=O)(O)OP(=O)(O)O)[C@@H](O)[C@H]1O
Description: adenylyl cyclase assay, cAMP by LC-MS/MS. It counts as biochemical, Brachypodium distachyon.

B1: BdGUCD1 (Brachypodium distachyon) (protein)
chain: MVLRTLGVDCCDGIADLGKLCHTTSIWTVDLAYLLHKFRVSFSFFTVTIGANPQYSAETFYREQLQEDIDRVDELFGKAVDAGISIQCRSISAYDIAFLLLSGHCIAIALVDKSKLISSWMNDVHDVQQFNEDSDYMGHYVVICGYDADACEFEIRDPASSRKREMVPMKSLEEARKSFGTDEDILLVSLTGKNGMKLSRKLPDSSL
notes: truncated fragment Met62-Leu268 (207 residues; full length 268 aa), N-terminal GST fusion kept (pGEX-6P-2), ~55 kDa, from E. coli BL21(DE3)pLysS
One may read the Km as the concentration of substrate that gives half-maximal velocity. With B1, the Michaelis constant (Km) was determined as 0.32 mM.
